Assay [1] addresses T1, hCLDN9/BaF3.
T1 construct: also called human CLDN9 on Ba/F3 cells
T1 membrane protein: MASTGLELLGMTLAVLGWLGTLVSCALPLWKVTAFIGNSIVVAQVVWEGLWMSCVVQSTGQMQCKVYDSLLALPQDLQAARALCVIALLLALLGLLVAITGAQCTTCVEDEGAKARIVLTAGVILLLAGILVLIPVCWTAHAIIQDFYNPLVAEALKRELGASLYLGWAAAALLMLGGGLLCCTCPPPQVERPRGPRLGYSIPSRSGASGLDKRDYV
Nature of the assay: flow cytometry on hCLDN9/BaF3 cells, detection with Alexa Fluor 488 anti-human IgG.

Assay [2] concerns the target T2, hCLDN3/BaF3.
T2 construct: also called human CLDN3 on Ba/F3 cells
T2 membrane protein: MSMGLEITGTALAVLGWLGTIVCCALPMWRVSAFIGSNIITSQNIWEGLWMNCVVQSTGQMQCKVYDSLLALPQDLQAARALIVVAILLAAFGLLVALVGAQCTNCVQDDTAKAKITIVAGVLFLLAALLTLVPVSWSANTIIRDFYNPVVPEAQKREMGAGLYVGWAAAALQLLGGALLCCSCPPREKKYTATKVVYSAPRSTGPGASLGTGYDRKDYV
Kind of assay: flow cytometry on hCLDN3/BaF3 cells, detection with Alexa Fluor 488 anti-human IgG. For orientation: In flow cytometry, cells or beads pass a laser one at a time.

In assay [3] the target is T3, hCLDN4/BaF3.
T3 construct: also called human CLDN4 on Ba/F3 cells
T3 membrane protein: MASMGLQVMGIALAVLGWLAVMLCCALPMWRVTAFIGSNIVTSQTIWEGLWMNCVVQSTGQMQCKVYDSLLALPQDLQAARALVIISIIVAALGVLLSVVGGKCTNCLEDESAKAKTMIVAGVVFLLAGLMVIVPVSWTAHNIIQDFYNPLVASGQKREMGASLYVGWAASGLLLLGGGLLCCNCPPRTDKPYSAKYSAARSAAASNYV
Nature of the assay: flow cytometry on hCLDN4/BaF3 cells, detection with Alexa Fluor 488 anti-human IgG.

The target of assay [4] is T4, human CLDN6 on Ba/F3 cells (hCLDN6/BaF) (human, UniProt P56747 1-220).
T4 construct: also called human Claudin-6
T4 chain: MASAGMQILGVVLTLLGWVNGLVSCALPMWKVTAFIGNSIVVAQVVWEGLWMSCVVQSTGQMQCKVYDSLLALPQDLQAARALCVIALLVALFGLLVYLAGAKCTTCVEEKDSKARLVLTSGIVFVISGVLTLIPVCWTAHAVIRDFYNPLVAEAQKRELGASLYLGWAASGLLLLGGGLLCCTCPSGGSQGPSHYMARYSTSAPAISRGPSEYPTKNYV
Kind of assay: flow cytometry on hCLDN6/BaF3 cells, detection with Alexa Fluor 488 anti-human IgG.

For assay [5], the target named is T5, human CLDN6 VLP (virus-like particle) (human, UniProt P56747 1-220).
T5 chain: T4 chain
Kind of assay: SPR Biacore T200, 25 C, pH 7.4, CLDN6 VLP captured by anti-human CD81 on C1 chip, antibody injected at 50 and 200 nM, 1:1 fit. (In SPR one partner is held on a chip, and binding of the other changes the refractive index at the surface.)

Assay [6] deals with cyno CLDN6 VLP (virus-like particle) (cynomolgus monkey).
Assay [7] addresses T6, Human CD137 extracellular domain (ECD) with hexahistidine (His-tag) and biotin acceptor peptide (BAP) (human).
T6 construct: Expressed in FreeStyle293F cells; also called recombinant human CD137; human CD137 ECD; not shown: C-terminal hexahistidine tag and biotin acceptor peptide (BAP)
Nature of the assay: SPR Biacore 8K, 37 C, pH 7.4, antibody captured by anti-human Fc on CM4 chip, CD137 injected at 500 and 2000 nM, 1:1 fit.

The target in assay [8] is T7, recombinant cyno CD137 (cynomolgus monkey, UniProt A9YYE7 24-186).
T7 sequence: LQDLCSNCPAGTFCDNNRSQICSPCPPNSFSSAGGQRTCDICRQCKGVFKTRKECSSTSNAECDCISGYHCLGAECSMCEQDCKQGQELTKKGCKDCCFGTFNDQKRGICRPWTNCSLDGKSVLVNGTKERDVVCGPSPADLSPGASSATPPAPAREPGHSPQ
The assay is described as above.

For assay [9], the target named is T8, human CD3eg linker (human).
T8 construct: Single-chain construct: CD3 gamma and epsilon subunits joined by a 29-mer linker, Flag-tag at the C-terminal end of the gamma subunit; also called recombinant human CD3; gamma and epsilon subunits of the human CD3 complex linked by a 29-mer linker, Flag-tag
T8 chain: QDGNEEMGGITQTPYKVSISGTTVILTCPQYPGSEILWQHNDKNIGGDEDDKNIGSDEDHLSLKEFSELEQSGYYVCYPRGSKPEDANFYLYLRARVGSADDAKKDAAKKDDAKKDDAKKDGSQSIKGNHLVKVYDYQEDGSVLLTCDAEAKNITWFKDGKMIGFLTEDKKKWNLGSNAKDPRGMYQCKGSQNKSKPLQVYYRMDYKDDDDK
Nature of the assay: SPR Biacore 8K, 25 C, pH 7.4, antibody captured by anti-human Fc on CM4 chip, CD3eg injected at 500 and 2000 nM, 1:1 fit.

For assay [10], the target named is T9, recombinant cyno CD3eg (cynomolgus monkey).
T9 construct: Construct not described; also called cyno CD3eg (gamma and epsilon subunits of CD3)
T9 sequence (Q95LI5 22-117, chain 1 of 2): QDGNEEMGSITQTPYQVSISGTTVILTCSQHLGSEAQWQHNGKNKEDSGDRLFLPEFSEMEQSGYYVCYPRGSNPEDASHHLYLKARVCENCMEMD
T9 sequence (Q95LI7 23-113, chain 2 of 2, further chain): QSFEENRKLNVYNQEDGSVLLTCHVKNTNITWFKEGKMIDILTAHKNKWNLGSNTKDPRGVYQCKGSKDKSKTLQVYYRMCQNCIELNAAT
Described as above.

Changes are numbered by the printed parent chain.

T6 sequence (chain, as listed by the source): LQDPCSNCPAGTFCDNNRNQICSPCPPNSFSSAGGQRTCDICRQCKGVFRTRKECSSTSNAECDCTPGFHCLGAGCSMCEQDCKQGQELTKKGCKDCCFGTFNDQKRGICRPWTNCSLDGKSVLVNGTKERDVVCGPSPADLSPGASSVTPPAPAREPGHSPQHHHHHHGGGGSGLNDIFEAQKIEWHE

B1: CS2961 (bispecific antibody, V domains shown)
VH 1: QVQLVESGGGVVQPGGSLRLSCAASGFTFSSYTMSWVREAPGQGLEWMGTISSGGGRTYYPDSVKGRFTISRDNSKNTLYLQMNSLRDEDTAVYYCARGDYRYDGFAYWGEGTLVTVSS
VL 1: DIQMTQSPSSLSASVGDRVTITCRASYNIDSYLAWYQKKPGKAPELLIYYSTLLVDGVPDRFSGSRSGTDFTLTISSLQPEDFATYYCQHYYSIPYTFGQGTKVEIE
VH 2: QVQLVESGGGVVQPGGSLRLSCAASGFTFSNAWMHWVRKAPGKGLEWVAQIKDKSQNYATYVAESVKGRFTISRADSKNSIYLQMNSLKTEDTAVYYCRYVHYAAGYGVDIWGQGTTVTVSS
VL 2: DIVMTQSPLSLPVTPGEPASISCRSSQPLVHSNRNTYLHWYQEKPGQAPRLLIYKVSNRFSGVPDRFSGSGSGTDFTLKISRVEAEDVGVYYCGQGTQVPYTFGQGTKLEIK
notes: detected with anti-human IgG; also called anti-CLDN6/CD3 bispecific antibody (CS2961)
Regarding B1, the binding result in [1], in assay [2] and in assay [3] was “no binding (tested: 15 micro g/ml)” in each case.

B2: 6PHU3/TR01 (bispecific antibody, V domains shown)
VH 1: EVQLQQSGPELVKPGASMKISCKASGYSFTGYTMNWVKQSHGKNLEWIGLINPYNGGTIYNQKFKGKATLTVDKSSSTAYMELLSLTSEDSAVYYCARDYGFVLDYWGQGTTLTVSS
VL 1: DIVLTQSPSIMSVSPGEKVTITCSASSSVSYMHWFQQKPGTSPKLCIYSTSNLASGVPARFSGRGSGTSYSLTISRVAAEDAATYYCQQRSNYPPWTFGGGTKLEIK
VH 2: B1 VH 2 with K39Q
VL 2: B1 VL 2 with E43Q
notes: also called anti-CLDN6/CD3 bispecific antibody (6PHU3/TR01)
Turning to B2, the binding result in assay [2] and in assay [3] was “no binding (tested: 15 micro g/ml)” in each case.

B3: KLH/TR01 (bispecific antibody, V domains shown)
VH 1: QVQLQQSGPQLVRPGASVKISCKASGYSFTSYWMHWVNQRPGQGLEWIGMIDPSYSETRLNQKFKDKATLTVDKSSSTAYMQLSSPTSEDSAVYYCALYGNYFDYWGQGTTLTVSS
VL 1: DIQMTQSSSSFSVSLGDRVTITCKASEDIYNRLAWYQQKPGNAPRLLISGATSLETGVPSRFSGSGSGKDYTLSITSLQTEDVATYYCQQYWSTPYTFGGGTKLEVK
VH 2: B1 VH 2 with K39Q
VL 2: B1 VL 2 with E43Q
notes: also called negative control
On to B3, for which the binding result in assay [1] and in assay [4] was “no binding (tested: 15 micro g/ml)” in each case.

B4: PPU4135 (bispecific antibody, human IgG1, kappa, L234A L235A, N297A)
heavy 1: QVQLVESGGGVVQPGGSLRLSCAASGFTFSSYTMSWVRQAPGQGLEWMGTISSGGGRTYYPDSVKGRFTISRDNSKNTLYLQMNSLRDEDTAVYYCARGDYRYDGFAYWGEGTLVTVSSASTKGPSVFPLAPSSKSTSGGTAALGCLVEDYFPEPVTVSWNSGALTSGVHTFPAVLESSGLYSLSSVVTVPSSSLGTQTYICNVNHKPSNTKVDKRVEPKSCDKTHTCPPCPAPEAAGGPSVFLFPPKPKDTLMISRTPEVTCVVVDVSHEDPEVKFNWYVDGVEVHNAKTKPREEQYASTYRVVSVLTVLHQDWLNGKEYKCKVSNKALPAPIEKTISKAKGQPREPQVYTLPPSREEMTKNQVSLTCLVKGFYPSDIAVEWESNGQPENNYKTTPPVLDSDGSFFLYSKLTVDKSRWQQGNVFSCSVMHEALHNHYTQESLSLSP
light 1: DIQMTQSPSSLSASVGDRVTITCRASYNIDSYLAWYQQKPGKAPELLIYYSTLLVDGVPDRFSGSRSGTDFTLTISSLQPEDFATYYCQHYYSIPYTFGQGTKVEIERTVAAPSVFIFPPSDEQLKSGTAKVVCLLNNFYPREAKVQWKVDNALQSGNSKESVTEQDSKDSTYSLSSTLTLSKADYEKHKVYACEVTHQGLSSPVTKSFNRGEC
heavy 2: QVQLVESGGGLVQPGRSLRLSCAASGFKFSNVWFHWVRQAPGKGLEWVAQIKDYYNAYAAYYAPSVKGRFTISRDDSKNSIYLQMNSLKTEDTAVYYCHYVHYASASTLLPAEGVDAWGQGTTVTVSSASTKGPSVFPLAPSSKSTSGGTAALGCLVKDYFPEPVTVSWNSGALTSGVHTFPAVLKSSGLYSLSSVVTVPSSSLGTQTYICNVNHKPSNTKVDKRVEPKSCDKTHTCPPCPAPEAAGGPSVFLFPPKPKDTLMISRTPEVTCVVVDVSHEDPEVKFNWYVDGVEVHNAKTKPREEQYASTYRVVSVLTVLHQDWLNGKEYKCKVSNKALPAPIEKTISKAKGQPREPQVYTLPPSRKEMTKNQVSLTCLVKGFYPSDIAVEWESNGQPENNYKTTPPVLDSDGSFFLYSKLTVDKSRWQQGNVFSCSVMHEALHNHYTQKSLSLSP
light 2: DIVMTQSPLSLPVTPGEPASISCQPSQEVVHMNRNTYLHWYQQKPGQAPRLLIYKVSNRFPGVPDRFSGSGSGTDFTLKISRVEAEDVGVYYCAQGTSHPFTFGQGTKLEIKRTVAAPSVFIFPPSDEQLKSGTAEVVCLLNNFYPREAKVQWKVDNALQSGNSEESVTEQDSKDSTYSLSSTLTLSKADYEKHKVYACEVTHQGLSSPVTKSFNRGEC
notes: also called CS4135; Ab03
B4: the Kd in [5] was found to be 3.65 nM; in [6], 3.77 nM; in [7], 46.8 nM; in [8] it was 174 nM; in assay [9], 341 nM; in [10] it was 329 nM. In addition, the dissociation rate constant (koff) came out at 0.000794 s⁻¹ in assay [5]; 0.000821 s⁻¹ in assay [6]; 0.000591 s⁻¹ in assay [7]; 0.00146 s⁻¹ in assay [8]; 0.0266 s⁻¹ in [9]; 0.0332 s⁻¹ in assay [10]. Besides, the kon in assay [5] turned out to be 217000 M⁻¹ s⁻¹; in assay [6], 218000 M⁻¹ s⁻¹; in assay [7], 12600 M⁻¹ s⁻¹; in assay [8], 8350 M⁻¹ s⁻¹; in assay [9], 78000 M⁻¹ s⁻¹; in assay [10] it was 101000 M⁻¹ s⁻¹.

One may read the Kd as the constant that tells how readily two partners part at equilibrium. What is called koff is the rate constant with which the complex falls apart. By kon is commonly meant a measure of how fast the partners come together.
